In patent publication US20140112915A1 (Novartis, published 2014):
Substitutions are numbered along the chain they refer to.

T1: Recombinant human IL-18 (human, UniProt Q14116 37-193)
T1 construct: Used unlabeled or biotinylated depending on the assay step; also called Hu IL-18; hr IL-18
T1 sequence: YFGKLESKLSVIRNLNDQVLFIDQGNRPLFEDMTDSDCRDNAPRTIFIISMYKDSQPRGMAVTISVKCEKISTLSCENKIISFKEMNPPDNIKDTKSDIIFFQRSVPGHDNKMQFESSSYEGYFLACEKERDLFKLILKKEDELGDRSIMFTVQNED

T2: Native human IL-18 (human, UniProt Q14116 37-193)
T2 sequence: T1 sequence

T3: Recombinant cynomolgus IL-18 (cynomolgus monkey, UniProt Q14116 37-193 (human entry))
T3 chain: T1 sequence with V11I, S50N, T63A, K79R, F134Y, E141K

T4: IL-18/IL-18BP complex (human, UniProt O95998 31-194, biotinylated in the first ELISA setup, unbiotinylated in the second)
T4 construct: also called biotinylated IL-18/IL18-BP complex; not shown: human IgG1 Fc tag
T4 sequence 1: T1 sequence
T4 sequence 2: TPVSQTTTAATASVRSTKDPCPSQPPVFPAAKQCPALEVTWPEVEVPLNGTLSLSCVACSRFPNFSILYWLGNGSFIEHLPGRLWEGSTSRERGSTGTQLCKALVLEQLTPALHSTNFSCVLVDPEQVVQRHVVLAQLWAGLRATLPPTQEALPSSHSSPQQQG

B1: MOR10501 (antibody, human IgG1, lambda, L234A L235A, V domains shown)
VH: EVQLQESGPGLVKPGETLSLTCTVSGGSISTGSYYWNWIRQAPGKGLEWIGEIWHSGPTFYNPSLKSRVTISVDTSKNQFSLKLSSVTAADTAVYYCARTTRYWMSHILAYGMDYWGQGTLVTVSS
VL: DIVLTQPPSVSGAPGQRVTISCSGSSSNIGNHYVSWYQQLPGTAPKLLIYANTKRPSGVPDRFSGSKSGTSASLAITGLQSEDEADYYCSSYDGSQSIVFGGGTKLTVLG
notes: also called MOR010501
B2: MOR10497 (antibody, human IgG1, lambda, L234A L235A, V domains shown)
VH: B1 VH with W54Q, H55S, S56P, P58Y
VL: B1 VL
notes: also called MOR010497
B3: MOR10502 (antibody, human IgG1, lambda, L234A L235A, V domains shown)
VH: B1 VH with W54H, H55G, S56H, P58F
VL: B1 VL
notes: also called MOR010502
B4: MOR09465 (antibody, human IgG1, lambda, L234A L235A, V domains shown)
VH: EVQLVQSGAEVKKPGSSVKVSCKASGGTFNSYAISWVRQAPGQGLEWMGNIIPHYGFAYYAQKFQGRVTITADESTSTAYMELSSLRSEDTAVYYCARAAYHPLVFDNWGQGTLVTVSS
VL: DIVLTQPPSVSGAPGQRVTISCSGSSSNIGNHYVNWYQQLPGTAPKLLIYRNNHRPSGVPDRFSGSKSGTSASLAITGLQSEDEADYYCQSWDYSGFSTVFGGGTKLTVLG
notes: also called MOR9465
B5: MOR09466 (antibody, human IgG1, lambda, L234A L235A, V domains shown)
VH: B4 VH with H54Y, Y55S
VL: B4 VL
notes: also called MOR9466
B6: MOR09441 (antibody, human IgG1, lambda, L234A L235A, V domains shown)
VH: EVQLVQSGAEVKKPGSSVKVSCKASGGTFNSYAISWVRQAPGQGLEWMGWINPFYIGETFYAQKFQGRVTITADESTSTAYMELSSLRSEDTAVYYCARAAYHPLVFDNWGQGTLVTVSS
VL: B4 VL
notes: also called MOR9441
B7: MOR09464 (antibody, human IgG1, lambda, L234A L235A, V domains shown)
VH: B4 VH with H54M, Y55T, F57Q, A58T
VL: B4 VL
notes: also called MOR9464
B8: MOR10222_E1Q_N30S_M54I (antibody, human IgG1, lambda, L234A L235A, V domains shown)
VH: B4 VH with E1Q, N30S, H54I, Y55T, F57Q, A58T
VL: B4 VL with D1Q, I2S, V10A, A13T, T77S
B9: MOR13363 (antibody, human IgG1, kappa, L234A L235A, V domains shown)
VH: QVQLLESGGGLVQPGGSLRLSCAASGFTFSSYAIHWVRQAPGKGLEWVSVISGEGSNTYYADSVKGRFTISRDNSKNTLYLQMNSLRAEDTAVYYCARVMIGYGFDYWGQGTLVTVSS
VL: DIQMTQSPSSLSASVGDRVTITCRASQSIFNYLNWYQQKPGKAPKLLIYDSSTLQSGVPSRFSGSGSGTDFTLTISSLQPEDFATYYCLQYSGFLFTFGQGTKVEIKR
B10: MOR13361 (antibody, human IgG1, kappa, L234A L235A, V domains shown)
VH: B9 VH with V50T, S52Q, G53S, E54S, S56E, T58K, Y59F
VL: B9 VL with L89H, F94L
B11: MOR13341 (antibody, human IgG1, kappa, L234A L235A, V domains shown)
VH: QVQLVQSGAEVKKPGSSVKVSCKASGGTFSTFSISWVRQAPGQGLEWMGGIIPIFGTANYAQKFQGRVTITADESTSTAYMELSSLRSEDTAVYYCARGGYGGYYYFDYWGQGTLVTVSS
VL: B9 VL with F30S, Y32R, D50K, S51G, L89Q, Y91H, S92K, G93V, F94W, F96T

biological target: T1, Recombinant human IL-18; test: solution equilibrium titration (SET), ECL detection
Protocol: (§1) Goat-anti-human (Fab)₂ fragment specific antibodies (Dianova) were labeled with MSD SULFO-TAG™ NHS-Ester (Meso Scale Discovery, Gaithersburg, Md., USA) according to the manufacturer's instructions. Experiments were carried out in polypropylene microtiter plates and phosphate-based assay buffer. Unlabeled human IL-18 was serially diluted, starting with a concentration at least 10 times higher than the expected KD. Wells without antigen were used to determine Bₘₐₓ values; wells with assay buffer were used to determine background. After addition of a constant amount of antibodies or fragment thereof (e.g. 10 pM final concentration in 60 μl final volume), the mixture was incubated over night at RT.
(§2) Streptavidin MSD plates were blocked with BSA-containing phosphate buffer over night. After blocking of the plate, biotinylated human IL-18 was added and incubated for 1 h at RT. Subsequently the equilibrated samples were transferred to those plates and incubated for a short time at RT. After washing, MSD SULFO-TAG labeled detection antibody (goat anti-human (Fab)₂) was added to the MSD plate and incubated for a short time at RT.
(§3) Where IL-18 from cynomolgus monkey (cm IL-18) was also tested, the resulting KD are indicated in brackets.

First: B1
Second: B2
The Kd of the first is 2-fold lower: 0.001 nM for the first, 0.002 nM for the second.

First: B3
Second: B4
The Kd of the first is 1.5-fold lower: 0.004 nM for the first, 0.006 nM for the second. The first binds more tightly here.

First: B5
Second: B6
The Kd of the first is 5-fold higher: 0.005 nM for the first, 0.001 nM for the second. The second binds more tightly here.

With B7 the Kd was 0.003 nM.

biological target: T1, Recombinant human IL-18; test: cell-based or functional assay

With B8 the “IC50, inhibition of IFN-γ release, KG-1 cells, Hu IL-18 (1 nM)” value (“IC50, inhibition of IFN-γ release … (1 nM)” below) was 4.2 nM.

biological target: T2, Native human IL-18; test: cell-based or functional assay

For B8, the “IC50, inhibition of IFN-γ release, PBMC, Native IL-18 (LPS/IL-12)” value (“IC50, inhibition … (LPS/IL-12)” below) was 0.05 nM.

Biological target: T3, Recombinant cynomolgus IL-18
Test: cell-based or functional assay

Going from B4 to B5, the “IC50, inhibition of IFN-γ production, cynomolgus whole blood, recombinant cynomolgus IL-18 (7 nM)” value rises from 55 nM to 179 nM (3.3-fold).

Compared with B6, B7 is 2.2-fold lower in “IC50, inhibition of IFN-γ production, cynomolgus whole blood, recombinant cynomolgus IL-18 (7 nM)” value: 110 nM for the first, 51 nM for the second.

Biological target: T3, Recombinant cynomolgus IL-18
Test: solution equilibrium titration (SET), ECL detection; value in brackets = cynomolgus IL-18; bracketed value
Protocol: as §1, §2, §3

Going from B9 to B10, the Kd falls from 0.01 nM to 0.006 nM (1.7-fold).

B11 and B8 are the same in Kd: 0.03 nM for the first, 0.03 nM for the second.

biological target: T1, Recombinant human IL-18; test: cell-based or functional assay; remark: another data set of the same source

B1 and B2 are within 1.5-fold of each other in “IC50, inhibition of IFN-γ release, human whole blood, recombinant human IL-18 (7 nM)” value (“IC50, inhibition of IFN-γ release … (7 nM)” below): 20.3 nM for the first, 16.1 nM for the second.

First: B3
Second: B4
The “IC50, inhibition of IFN-γ release … (7 nM)” value of the first is 4.3-fold higher: 17.9 nM for the first, 4.2 nM for the second.

B5 and B6 are within 1.5-fold of each other in “IC50, inhibition of IFN-γ release … (7 nM)” value: 5.6 nM for the first, 8 nM for the second.

Compared with B7, B9 is 8.2-fold higher in “IC50, inhibition of IFN-γ release … (7 nM)” value: 3.6 nM for the first, 29.4 nM for the second.

Compared with B10, B11 is 2.8-fold lower in “IC50, inhibition of IFN-γ release … (7 nM)” value: 15.7 nM for the first, 5.6 nM for the second.

For B8, the “IC50, inhibition of IFN-γ release … (7 nM)” value was 47.3 nM.

biological target: T2, Native human IL-18; test: cell-based or functional assay; remark: another data set of the same source

B1 and B2 are within 1.5-fold of each other in “IC50, inhibition of IFN-γ release, human whole blood, LPS/IL-12 (native IL-18)” value (“IC50, inhibition … (native IL-18)” for short): 101 nM for the first, 108 nM for the second.

Compared with B3, B4 is 5.7-fold lower in “IC50, inhibition … (native IL-18)” value: 110 nM for the first, 19.4 nM for the second.

B5 and B6 are within 1.5-fold of each other in “IC50, inhibition … (native IL-18)” value: 18.5 nM for the first, 16.3 nM for the second.

Compared with B7, B9 is 9.4-fold higher in “IC50, inhibition … (native IL-18)” value: 9.8 nM for the first, 91.7 nM for the second.

First: B10
Second: B11
The “IC50, inhibition … (native IL-18)” value of the first is 2-fold higher: 39.4 nM for the first, 19.6 nM for the second.

For B8, the “IC50, inhibition … (native IL-18)” value was 9.3 nM.

Biological target: T3, Recombinant cynomolgus IL-18
Test: cell-based or functional assay
Remark: another data set of the same source

B1 and B2 are within 1.5-fold of each other in “IC50, inhibition of IFN-γ release, KG-1 cells, Cyno IL-18” value: 0.2 nM for the first, 0.3 nM for the second.

Compared with B3, B4 is 9-fold higher in “IC50, inhibition of IFN-γ release, KG-1 cells, Cyno IL-18” value: 0.2 nM for the first, 1.8 nM for the second.

Going from B5 to B6, the “IC50, inhibition of IFN-γ release, KG-1 cells, Cyno IL-18” value rises from 5.6 nM to 16.4 nM (2.9-fold).

B7 and B8 are within 1.5-fold of each other in “IC50, inhibition of IFN-γ release, KG-1 cells, Cyno IL-18” value: 8.3 nM for the first, 8.12 nM for the second.

Compared with B9, B10 is 2.2-fold lower in “IC50, inhibition of IFN-γ release, KG-1 cells, Cyno IL-18 (0.2 nM)” value: 0.28 nM for the first, 0.13 nM for the second.

B11 was tested, and the “IC50, inhibition of IFN-γ release, KG-1 cells, Cyno IL-18 (0.2 nM)” value was 2.8 nM.

biological target: T1, Recombinant human IL-18; test: cell-based or functional assay; remark: another data set of the same source

B1 and B2 are the same in “IC50, inhibition of IFN-γ release … (1 nM)” value: 0.3 nM for the first, 0.3 nM for the second.

B3 and B4 are within 1.5-fold of each other in “IC50, inhibition of IFN-γ release … (1 nM)” value: 0.4 nM for the first, 0.3 nM for the second.

B5 and B6 are within 1.5-fold of each other in “IC50, inhibition of IFN-γ release … (1 nM)” value: 0.4 nM for the first, 0.6 nM for the second.

First: B7
Second: B8
The “IC50, inhibition of IFN-γ release … (1 nM)” value of the first is 5.3-fold lower: 0.8 nM for the first, 4.21 nM for the second.

B1 and B2 are within 1.5-fold of each other in “IC50, inhibition of IFN-γ release, PBMC, Hu IL-18 (recombinant)” value (from here on “IC50, inhibition … (recombinant)”): 6.3 nM for the first, 5.8 nM for the second.

First: B3
Second: B4
The “IC50, inhibition … (recombinant)” value of the first is 10-fold higher: 6.3 nM for the first, 0.6 nM for the second.

First: B5
Second: B6
The “IC50, inhibition … (recombinant)” value of the first is 2.1-fold lower: 1.2 nM for the first, 2.5 nM for the second.

B7 was tested, and the “IC50, inhibition … (recombinant)” value was 1.3 nM.

B9 and B10 are within 1.5-fold of each other in “IC50, inhibition of IFN-γ release, KG-1 cells, Hu IL-18 (0.5 nM)” value: 0.49 nM for the first, 0.41 nM for the second.

With B11 the “IC50, inhibition of IFN-γ release, KG-1 cells, Hu IL-18 (0.5 nM)” value was 0.13 nM.

biological target: T2, Native human IL-18; test: cell-based or functional assay; remark: another data set of the same source

B1 and B2 are within 1.5-fold of each other in “IC50, inhibition … (LPS/IL-12)” value: 1.3 nM for the first, 1.8 nM for the second.

Compared with B3, B4 is 2.6-fold lower in “IC50, inhibition … (LPS/IL-12)” value: 2.3 nM for the first, 0.89 nM for the second.

Going from B5 to B6, the “IC50, inhibition … (LPS/IL-12)” value falls from 2.1 nM to 0.45 nM (4.7-fold).

B7 and B9 are within 1.5-fold of each other in “IC50, inhibition … (LPS/IL-12)” value: 0.2 nM for the first, 0.18 nM for the second.

Going from B10 to B11, the “IC50, inhibition … (LPS/IL-12)” value rises from 0.5 nM to 0.8 nM (1.6-fold).

B8 was tested, and the “IC50, inhibition … (LPS/IL-12)” value was 0.05 nM.

biological target: T4, IL-18/IL-18BP complex; test: ELISA, second set-up: unbiotinylated human IL-18/rhIL-18BP-Fc complex captured on Maxisorp plate through the Fc tag by goat anti-human IgG Fc, antibody titrated, AttoPhos fluorescence [B]
Protocol: Plates were washed 5× with TBST, 20 μl AttoPhos (Roche) solution (1:5 diluted in ddH2O) were added and fluorescence was measured at the Tecan Reader.
In a second setup, the experiment was done in a similar way, except for using unbiotinylated hu IL-18.

B4: no binding (tested: about 400 nM).
B5: no binding (tested: about 400 nM).
B6: no binding (tested: about 400 nM).
B7: no binding (tested: about 400 nM).

biological target: T1, Recombinant human IL-18; test: solution equilibrium titration (SET), ECL detection; human IL-18; unbracketed value, column Hu IL-18
Protocol: as §1, §2, §3

B9 and B10 are within 1.5-fold of each other in Kd: 0.01 nM for the first, 0.007 nM for the second.

B11 and B8 are the same in Kd: 0.003 nM for the first, 0.003 nM for the second.
